Reference: patent US20060172367

T1: fructosyl valine-histidine-leucine
T1 chain: VHL

T2: fructosyl valine-histidine
T2 chain: VH

T3: fructosyl valine-leucine-serine
T3 chain: VLS

T4: fructosyl valine-leucine
T4 chain: VL

B1: fructosylamine oxidase FAO-Q2 from Fusarium proliferatum GL2-1 strain (protein)
chain: MARTVAPLNKDSGILIVGGGTWGCSTALHLARRGYTNVTVLDVNRIPSPISAGHDVNKLSNRLGTSDSKGDDEDSIWKALTYAAAQGWLHDPIFQPFCHNTGAVMAGSTPKSIKQLVEDEIGDDIDQYTPLNTAEDFRRTMPERILTGDFLGWKGFYKPRGSGWVHARKAMKAAFEESQRLGVKFITGSPEGKVESLVFEAGDVKGAKTADGKEHRADRTILSAGASAEFSLDFENQIRPTAWTLGHIQMTAEETKLYKELPPLFNINQGFFMEPDEDLHQLKMCDEHPGYCNWVDKPGSKYPQSIPFAKYQVPIEAERRMKQFLKDIMPQLADRPLVHARICWCADTQDRMFLITYHPRHPSLVIASGDCGTGYKHITSIGKFISDCMEGTLEERFAKFWRWRPEKFTEFWGKDPLDRFGADDKIMDLPKSDAEGWTDIQNDK
B2: fructosylamine oxidase FAO-Q1 from Fusarium proliferatum GL2-1 strain (protein)
chain: MAGPPSSILIVGSGVFGLGTAWALAKRSHFSNTSITVVDDCAGQFPPEDAASVDSSRIVRADYSDPYYAALAAEAQKEWRKQGDHEVGGQGRYSESGFVLCASETPEDFKLKKSGMDYTKESAKNVELIAKETGLPVDKIQKLESTKALQEFLGTDGYPGDWGYLNGNSGWADAGEGMKWLYKQAQATGRIHFVNGKVTELVTEGDRVIGAKLSDSKILKADVVMVAAGAWSGSLVDLRGRTEATGHAVAYMDITPEEQKRLDNFPVVLNLSTGLFLIPPRNNVLKAARHTFGYINPVKINNALPPSPNDKREPFIASQPYTSRNDSSNPLTVEADKDLRRALTDLCPIRGLETRPWKEARICWYSDTRDGEWLIDYHPGWKGLFVATGDSGHGFKFLPNLGEKIVDVMQGQGGKLGEKWRWKEIQNDGVGRETNGVYTGLVTEDGSRGGRPLVLCDELEKGRALIGNTKAKL

Columns and labels:
[1] = molecular target: T1, fructosyl valine-histidine-leucine
[2] = molecular target: T2, fructosyl valine-histidine
[3] = molecular target: T3, fructosyl valine-leucine-serine
[4] = molecular target: T4, fructosyl valine-leucine

| Protein | Relative activity (%) [1] | Relative activity (%) [2] | Relative activity (%) [3] | Relative activity (%) [4] |
| --- | --- | --- | --- | --- |
| B1 | 0.6% | 2.4% | 3.3% | 0.6% |
| B2 | – | – | – | 1.1% |
